This data set has as its target T1, Ci-FoxA-a (Ci-Fkh/HNF-3beta) (Ciona intestinalis, UniProt Q4H3J7 131-225).
T1 sequence: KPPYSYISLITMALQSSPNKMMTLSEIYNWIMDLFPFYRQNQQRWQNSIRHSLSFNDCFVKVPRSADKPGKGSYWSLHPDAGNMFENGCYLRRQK
Nature of the data set: competition.

B1: 27-52 Fox (distal) (dsDNA)
DNA 1: CTACACCCATATTTGAAGACCAAA
DNA 2: TTTGGTCTTCAAATATGGGTGTAG
On to B1, for which the binding result is “binds”.

These data come from PMC2666983.
